Data reported in US20030162714A1 (Pfizer, published 2003).

Molecular target: T1, recombinant purified GDF-8 (UniProt O14793 267-375, limits assumed)
T1 sequence (looked up): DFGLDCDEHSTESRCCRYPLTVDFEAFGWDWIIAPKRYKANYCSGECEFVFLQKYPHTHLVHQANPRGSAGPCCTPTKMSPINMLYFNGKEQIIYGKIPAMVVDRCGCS
Test: cell-based or functional assay

- IC50 for inhibition of GDF-8 in the reporter gene assay ((CAGA)12 luciferase, RD cells, 20 ng/ml GDF-8): ~3 nM
B1: mouse GASP1 cloned with a C-terminal V5-His tag (GASP1-V5-His) (other, not shown: small tags and cut ends)
chain: LPPIRYSHAGICPNDMNPNLWVDAQSTCKRECETDQECETYEKCCPNVCGTKSCVAARYMDVKGKKGPVGMPKEATCDHFMCLQQGSECDIWDGQPVCKCKDRCEKEPSFTCASDGLTYYNRCFMDAEACSKGITLSVVTCRYHFTWPNTSPPPPETTVHPTTASPETLGLDMAAPALLNHPVHQSVTVGETVSFLCDVVGRPRPELTWEKQLEDRENVVMRPNHVRGNVVVTNIAQLVIYNVQPQDAGIYTCTARNVAGVLRADFPLSVVRGGQARATSESSLNGTAFPATECLKPPDSEDCGEEQTRWHFDAQANNCLTFTFGHCHHNLNHFETYEACMLACMSGPLATCSLPALQGPCKAYVPRWAYNSQTGLCQSFVYGGCEGNGNNFESREACEESCPFPRGNQHCRACKPRQKLVTSFCRSDFVILGRVSELTEEQDSGRALVTVDEVLKDEKMGLKFLGREPLEVTLLHVDWTCPCPNVTVGETPLIIMGEVDGGMAMLRPDSFVGASSTRRVRKLREVMYKKTCDVLKDFLGLQ
